This passage reports stoichiometry N results from publication PMC10998907.

The target in assay [1] is NiV-RBP ectodomain (NiV attachment glycoprotein ectodomain), homotetramer (Nipah virus) (UniProt Q9IH62). Put plainly: negative-stain EM.
In assay [2] the target is NiV-RBP ectodomain homotetramer (Nipah virus). Nature of the assay: cryo-EM structure.

What is called stoichiometry N is the number of molecules, sites or subunits per partner or assembly. In assay [1], “NiV-RBP ectodomain (NiV attachment glycoprotein ectodomain), homotetramer (from UniProt Q9IH62 1-602) (domain or fragment)” returned a stoichiometry N of 4.

In assay [2], “NiV-RBP ectodomain homotetramer (domain or fragment)” registered a stoichiometry N of 4.
